Data published in PMC6987454.
Values joined by “and” are separate entries in the source; they are usually repeats but may differ in a detail not shown here. Equal entries are not always repeated.

Experiments:
[1] = target: AtCGE2 (Arabidopsis chloroplast GrpE homologue 2), mature region, 6xHis-tagged (Arabidopsis); assay: cross-linking; 5 uM purified protein in common buffer [25 mM Hepes-KOH (pH 7.8), 5 mM MgCl2, 5 mM DTT] crosslinked with glutaraldehyde at 0.05, 0.1 and 0.2% for 10 min; 4-12% SDS-PAGE and CBR staining
[2] = target: AtCGE1 (Arabidopsis chloroplast GrpE homologue 1), mature region, 6xHis-tagged (Arabidopsis); assay: pull-down; AtCGE1-6xHis and tag-free AtCGE2 co-expressed in E. coli BL21(DE3); crude protein extract bound to Talon beads, stringent wash, elution; bands seen on PAGE
[3] = target: AtCGE1 (Arabidopsis chloroplast GrpE homologue 1), mature region, 6xHis-tagged (Arabidopsis); assay: cross-linking; 5 uM purified protein in common buffer [25 mM Hepes-KOH (pH 7.8), 5 mM MgCl2, 5 mM DTT] crosslinked with glutaraldehyde at 0.05, 0.1 and 0.2% for 10 min; 4-12% SDS-PAGE and CBR staining

AtCGE1 (Arabidopsis chloroplast GrpE homologue 1), mature region, 6xHis-tagged (Arabidopsis), sequence (main, as listed by the source): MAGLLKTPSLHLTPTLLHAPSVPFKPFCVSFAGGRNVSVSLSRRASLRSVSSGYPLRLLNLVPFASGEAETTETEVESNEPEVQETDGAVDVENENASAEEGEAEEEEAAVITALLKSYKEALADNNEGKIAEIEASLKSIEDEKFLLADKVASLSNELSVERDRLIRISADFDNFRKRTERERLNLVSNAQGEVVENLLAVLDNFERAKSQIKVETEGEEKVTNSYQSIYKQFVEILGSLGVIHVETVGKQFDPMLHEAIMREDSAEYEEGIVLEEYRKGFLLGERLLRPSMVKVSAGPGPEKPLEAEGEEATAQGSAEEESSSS

Q: With “AtCGE2 (Arabidopsis chloroplast GrpE homologue 2), mature region, 6xHis-tagged (natural protein)” as the substance, how does the stoichiometry N [1] read?
A: Its stoichiometry N is 2 and 4.

Q: For “AtCGE2 (Arabidopsis chloroplast GrpE homologue 2), mature region, tag-free, co-expressed with AtCGE1-6xHis (natural protein)”, which stoichiometry N [2] is on record?
A: Its stoichiometry N is 1 molar ratio.

Q: “AtCGE1 (Arabidopsis chloroplast GrpE homologue 1), mature region, 6xHis-tagged (natural protein)” was tested. Which stoichiometry N [3] did it give?
A: Its stoichiometry N is 2 and 4.
